Measurements reported in paper PMC2713256, “Tousled kinase TLK1B counteracts the effect of Asf1 in inhibition of histone H3–H4 tetramer formation” (BMC Research Notes, 2009).

Key:
[1] = target: histone H3–H4 dimer (bovine | human) (UniProt P68432); experiment: cross-linking; combinations of H3, H4, Asf1 and TLK1B in equivalent amounts, no ATP, 5 min at room temperature in 50 mM phosphate buffer pH 7.2; 3 mM formaldehyde 5 min on ice, stopped with 50 mM glycine; SDS-PAGE, blots for H3, H4, Asf1 and TLK1B
[2] = target: T1, recombinant human TLK1B (GST-TLK1B) (human, UniProt Q9UKI8-3 1-549); experiment: pull-down; GST-TLK1B (5 ug with varying amounts of Asf1, or 1 ug each with and without 10 or 100 uM ATP and 1 mM MgCl2), 10 min at room temperature, adsorbed on GSH-Sepharose; bound and unbound fractions on 10% SDS-PAGE stained with Coomassie blue; details: both partners purified
T1 construct: Named GST-TLK1B in the pull-downs and only TLK1B in the cross-linking reactions; also called Tousled kinase TLK1B; source: recombinant, prepared as described previously [10]
T1 sequence (looked up): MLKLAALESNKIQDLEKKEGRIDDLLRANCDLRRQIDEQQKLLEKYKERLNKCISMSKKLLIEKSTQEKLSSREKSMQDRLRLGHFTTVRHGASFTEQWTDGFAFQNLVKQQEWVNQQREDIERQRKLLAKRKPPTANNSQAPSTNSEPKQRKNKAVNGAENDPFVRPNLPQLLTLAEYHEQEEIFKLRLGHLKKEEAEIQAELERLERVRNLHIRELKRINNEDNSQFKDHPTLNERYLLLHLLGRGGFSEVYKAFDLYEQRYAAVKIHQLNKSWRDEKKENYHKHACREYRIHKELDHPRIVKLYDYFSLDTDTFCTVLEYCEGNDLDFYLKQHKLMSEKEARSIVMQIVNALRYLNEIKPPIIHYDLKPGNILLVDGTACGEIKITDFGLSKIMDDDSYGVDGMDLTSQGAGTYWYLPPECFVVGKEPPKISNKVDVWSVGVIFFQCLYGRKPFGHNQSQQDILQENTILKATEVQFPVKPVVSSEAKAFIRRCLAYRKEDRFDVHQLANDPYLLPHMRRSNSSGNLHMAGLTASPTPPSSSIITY

percent inhibition of H3–H4 tetramer formation [1]: 57%
stoichiometry N [2]: 1
B1: recombinant human Asf1B (natural protein, UniProt Q9NVP2 1-202, looked up)
chain: MAKVSVLNVAVLENPSPFHSPFRFEISFECSEALADDLEWKIIYVGSAESEEFDQILDSVLVGPVPAGRHMFVFQADAPNPSLIPETDAVGVTVVLITCTYHGQEFIRVGYYVNNEYLNPELRENPPMKPDFSQLQRNILASNPRVTRFHINWDNNMDRLEAIETQDPSLGCGLPLNCTPIKGLGLPGCIPGLLPENSMDCI
notes: Asf1B, histone H3-H4 chaperone, human, recombinant; source: recombinant, prepared as described previously [10]
